From patent publication US20110300138A1 (published 2011)
Read-outs that look alike come from different tables or passages of the source.

What was measured:
Assay in all cases: cell-based or functional assay
[1] = target: TSHR with Tyr185 mutated to Ala, expressed in CHO cells (human) (UniProt P16473)
[2] = target: TSHR with Tyr82 mutated to Ala expressed in CHO cells (human) (UniProt P16473)
[3] = target: TSHR with Arg255 mutated to Ala (human) (UniProt P16473)
[4] = target: TSHR with Glu61 mutated to Ala, expressed in CHO cells (human) (UniProt P16473)
[5] = target: TSHR with Ile60 mutated to Ala, expressed in CHO cells (human) (UniProt P16473)
[6] = target: TSHR with Asp232 mutated to Ala expressed in CHO cells (human) (UniProt P16473)
Sequence of TSHR with Asp232 mutated to Ala expressed in CHO cells (human) (P16473 other isoform, or with tags, fused parts or gaps limits assumed, change not shown): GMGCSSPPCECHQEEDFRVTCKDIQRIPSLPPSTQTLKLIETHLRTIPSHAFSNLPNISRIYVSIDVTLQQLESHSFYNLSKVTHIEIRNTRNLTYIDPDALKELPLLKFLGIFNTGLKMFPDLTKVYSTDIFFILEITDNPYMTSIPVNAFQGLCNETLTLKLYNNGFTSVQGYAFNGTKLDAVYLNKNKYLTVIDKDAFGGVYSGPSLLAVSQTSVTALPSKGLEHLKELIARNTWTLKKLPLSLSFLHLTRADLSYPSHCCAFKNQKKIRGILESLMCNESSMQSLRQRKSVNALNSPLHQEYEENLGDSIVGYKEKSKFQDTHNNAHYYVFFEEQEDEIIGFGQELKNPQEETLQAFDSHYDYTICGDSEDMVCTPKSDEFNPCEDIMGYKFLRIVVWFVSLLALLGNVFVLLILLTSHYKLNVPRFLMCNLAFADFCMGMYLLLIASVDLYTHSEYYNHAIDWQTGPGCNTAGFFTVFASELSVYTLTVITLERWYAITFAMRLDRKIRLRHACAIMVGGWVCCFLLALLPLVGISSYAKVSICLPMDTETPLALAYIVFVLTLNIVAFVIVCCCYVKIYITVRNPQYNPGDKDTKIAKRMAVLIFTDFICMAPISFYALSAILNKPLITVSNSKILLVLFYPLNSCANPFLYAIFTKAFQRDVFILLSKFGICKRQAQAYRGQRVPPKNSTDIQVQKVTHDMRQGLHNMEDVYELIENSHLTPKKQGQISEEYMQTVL

Sequence of TSHR with Arg255 mutated to Ala (human) (P16473 other isoform, or with tags, fused parts or gaps, change not shown): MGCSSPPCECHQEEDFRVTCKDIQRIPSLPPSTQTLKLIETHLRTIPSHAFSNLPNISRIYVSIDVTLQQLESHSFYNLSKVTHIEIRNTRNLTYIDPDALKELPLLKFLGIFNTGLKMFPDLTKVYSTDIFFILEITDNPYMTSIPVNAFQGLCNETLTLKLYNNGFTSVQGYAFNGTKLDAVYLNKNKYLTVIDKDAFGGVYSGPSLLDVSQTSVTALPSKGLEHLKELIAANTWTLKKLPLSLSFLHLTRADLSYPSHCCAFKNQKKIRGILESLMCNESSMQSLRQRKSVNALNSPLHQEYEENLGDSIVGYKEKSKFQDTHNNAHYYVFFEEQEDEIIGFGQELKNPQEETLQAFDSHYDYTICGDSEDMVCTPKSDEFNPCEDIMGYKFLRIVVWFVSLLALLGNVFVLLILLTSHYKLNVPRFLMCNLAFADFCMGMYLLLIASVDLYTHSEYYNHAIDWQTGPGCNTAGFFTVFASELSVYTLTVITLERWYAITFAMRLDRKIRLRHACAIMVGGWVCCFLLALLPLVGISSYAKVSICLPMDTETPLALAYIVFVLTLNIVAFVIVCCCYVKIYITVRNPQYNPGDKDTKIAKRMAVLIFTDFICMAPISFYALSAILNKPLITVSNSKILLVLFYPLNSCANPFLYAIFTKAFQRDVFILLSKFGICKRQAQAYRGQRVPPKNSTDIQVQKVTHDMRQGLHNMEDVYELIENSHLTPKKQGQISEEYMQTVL
Sequence of TSHR with Tyr185 mutated to Ala, expressed in CHO cells (human) (P16473 other isoform, or with tags, fused parts or gaps limits assumed, change not shown): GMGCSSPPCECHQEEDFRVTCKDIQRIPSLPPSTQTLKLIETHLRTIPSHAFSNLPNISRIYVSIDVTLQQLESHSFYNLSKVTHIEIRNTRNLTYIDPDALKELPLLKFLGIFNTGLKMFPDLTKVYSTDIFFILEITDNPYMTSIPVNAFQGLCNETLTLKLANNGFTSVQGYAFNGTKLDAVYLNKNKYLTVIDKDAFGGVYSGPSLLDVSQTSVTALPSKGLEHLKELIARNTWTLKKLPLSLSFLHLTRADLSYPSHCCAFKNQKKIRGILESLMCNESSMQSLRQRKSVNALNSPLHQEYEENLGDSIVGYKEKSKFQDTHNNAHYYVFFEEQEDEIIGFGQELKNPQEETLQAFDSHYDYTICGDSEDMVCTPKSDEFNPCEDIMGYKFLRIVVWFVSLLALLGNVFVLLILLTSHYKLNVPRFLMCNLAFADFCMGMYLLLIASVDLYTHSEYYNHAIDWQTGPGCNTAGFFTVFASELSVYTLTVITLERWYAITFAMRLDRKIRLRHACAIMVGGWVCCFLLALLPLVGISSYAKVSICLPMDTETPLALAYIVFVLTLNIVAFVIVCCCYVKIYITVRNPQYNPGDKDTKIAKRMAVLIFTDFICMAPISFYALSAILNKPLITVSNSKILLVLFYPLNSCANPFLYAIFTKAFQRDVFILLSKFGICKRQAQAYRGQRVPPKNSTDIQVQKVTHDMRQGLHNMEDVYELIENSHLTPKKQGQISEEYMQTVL
Sequence of TSHR with Tyr82 mutated to Ala expressed in CHO cells (human) (P16473 other isoform, or with tags, fused parts or gaps, change not shown): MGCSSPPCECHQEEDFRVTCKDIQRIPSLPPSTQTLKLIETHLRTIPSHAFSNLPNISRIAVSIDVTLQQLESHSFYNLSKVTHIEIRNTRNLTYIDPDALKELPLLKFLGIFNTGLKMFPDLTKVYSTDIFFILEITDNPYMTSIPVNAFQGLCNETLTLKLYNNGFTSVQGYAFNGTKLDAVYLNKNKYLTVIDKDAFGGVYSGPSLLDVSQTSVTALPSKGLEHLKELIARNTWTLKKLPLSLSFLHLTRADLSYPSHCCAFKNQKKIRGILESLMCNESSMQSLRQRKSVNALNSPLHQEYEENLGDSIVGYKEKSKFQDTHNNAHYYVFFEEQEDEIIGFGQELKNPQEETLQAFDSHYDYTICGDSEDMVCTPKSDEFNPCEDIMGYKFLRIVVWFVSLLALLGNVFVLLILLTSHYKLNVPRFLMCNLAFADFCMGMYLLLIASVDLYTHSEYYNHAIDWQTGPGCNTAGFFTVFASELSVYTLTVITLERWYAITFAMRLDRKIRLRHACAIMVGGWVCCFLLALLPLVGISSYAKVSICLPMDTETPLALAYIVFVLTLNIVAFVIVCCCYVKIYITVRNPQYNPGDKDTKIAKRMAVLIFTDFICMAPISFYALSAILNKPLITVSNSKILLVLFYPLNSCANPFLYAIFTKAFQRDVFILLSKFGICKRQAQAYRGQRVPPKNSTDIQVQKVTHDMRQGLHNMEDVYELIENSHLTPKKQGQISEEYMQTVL

TSH (ligand)
Cyclic AMP produced (pmol/mL), mutated TSHR, TSH 0.01 ng/mL, Experiment 1 [1]: 3.33 pmol/mL | Cyclic AMP produced (pmol/mL), mutated TSHR, TSH 0.01 ng/mL, Experiment 2 [1]: 3.82 pmol/mL | Cyclic AMP produced (pmol/mL), mutated TSHR, TSH 0.03 ng/mL, Experiment 1 [1]: 3.85 pmol/mL | Cyclic AMP produced (pmol/mL), mutated TSHR, TSH 0.03 ng/mL, Experiment 2 [1]: 5.6 pmol/mL | Cyclic AMP produced (pmol/mL), mutated TSHR, TSH 0.1 ng/mL, Experiment 1 [1]: 8.36 pmol/mL | Cyclic AMP produced (pmol/mL), mutated TSHR, TSH 0.1 ng/mL, Experiment 2 [1]: 12.3 pmol/mL | Cyclic AMP produced (pmol/mL), mutated TSHR, TSH 0.3 ng/mL, Experiment 1 [1]: 21.1 pmol/mL | Cyclic AMP produced (pmol/mL), mutated TSHR, TSH 0.3 ng/mL, Experiment 2 [1]: 30.5 pmol/mL | Cyclic AMP produced (pmol/mL), mutated TSHR, TSH 1 ng/mL, Experiment 1 [1]: 37.8 pmol/mL | Cyclic AMP produced (pmol/mL), mutated TSHR, TSH 1 ng/mL, Experiment 2 [1]: 50.6 pmol/mL | Cyclic AMP produced (pmol/mL), mutated TSHR, TSH 3 ng/mL, Experiment 1 [1]: 42.9 pmol/mL | Cyclic AMP produced (pmol/mL), mutated TSHR, TSH 3 ng/mL, Experiment 2 [1]: 56.3 pmol/mL | Mutated/Wild type (%), TSH 0.01 ng/mL, Experiment 1 [1]: 128% | Mutated/Wild type (%), TSH 0.01 ng/mL, Experiment 2 [1]: 98% | Mutated/Wild type (%), TSH 0.03 ng/mL, Experiment 1 [1]: 90% | Mutated/Wild type (%), TSH 0.03 ng/mL, Experiment 2 [1]: 101% | Mutated/Wild type (%), TSH 0.1 ng/mL, Experiment 1 [1]: 76% | Mutated/Wild type (%), TSH 0.1 ng/mL, Experiment 2 [1]: 93% | Mutated/Wild type (%), TSH 0.3 ng/mL, Experiment 1 [1]: 65% | Mutated/Wild type (%), TSH 0.3 ng/mL, Experiment 2 [1]: 86% | Mutated/Wild type (%), TSH 1 ng/mL, Experiment 1 [1]: 45% | Mutated/Wild type (%), TSH 1 ng/mL, Experiment 2 [1]: 62% | Mutated/Wild type (%), TSH 3 ng/mL, Experiment 1 [1]: 35% | % inhibition of TSH stimulation; TSH (2); Experiment 1 [2]: 44% | % inhibition of TSH stimulation; TSH (2); Experiment 2 [2]: 22% | Cyclic AMP produced; TSH 3 ng/mL; Experiment 1 [2]: 166 pmol/mL | Cyclic AMP produced; TSH 3 ng/mL; Experiment 2 [2]: 74.6 pmol/mL | Cyclic AMP produced; TSH (2); Experiment 1 [2]: 92.3 pmol/mL | Cyclic AMP produced; TSH (2); Experiment 2 [2]: 57.9 pmol/mL | Mutated/wild type (%) of cyclic AMP produced; TSH 3 ng/mL; Experiment 1 [2]: 108% | Mutated/wild type (%) of cyclic AMP produced; TSH 3 ng/mL; Experiment 2 [2]: 125% | Mutated/wild type (%) of cyclic AMP produced; TSH (2); Experiment 1 [2]: 58% | Mutated/wild type (%) of cyclic AMP produced; TSH (2); Experiment 2 [2]: 94% | Mutated/Wild type (%) of cyclic AMP produced, TSH 0.01 ng/mL [3]: 161% | Mutated/Wild type (%) of cyclic AMP produced, TSH 0.03 ng/mL [3]: 141% | Mutated/Wild type (%) of cyclic AMP produced, TSH 0.1 ng/mL [3]: 126% | Mutated/Wild type (%) of cyclic AMP produced, TSH 0.3 ng/mL [3]: 101% | Mutated/Wild type (%) of cyclic AMP produced, TSH 1 ng/mL [3]: 90% | Mutated/wild type (%) of cyclic AMP produced; TSH 3 ng/mL [3]: 91% | % inhibition of TSH stimulation; TSH (2), run at the end of assay [4]: 17% | Mutated/Wild type (%) of cyclic AMP produced, TSH 0.01 ng/mL [4]: 470% | Mutated/Wild type (%) of cyclic AMP produced, TSH 0.03 ng/mL [4]: 369% | Mutated/Wild type (%) of cyclic AMP produced, TSH 0.1 ng/mL [4]: 271% | Mutated/Wild type (%) of cyclic AMP produced, TSH 0.3 ng/mL [4]: 188% | Mutated/Wild type (%) of cyclic AMP produced, TSH 1 ng/mL [4]: 129% | Mutated/wild type (%) of cyclic AMP produced; TSH 3 ng/mL [4]: 110% | Mutated/wild type (%) of cyclic AMP produced; TSH (2) 3 ng/mL, run at the end of assay [4]: 51% | Mutated/wild type (%) of cyclic AMP produced; TSH 3 ng/mL ([4]; record 2): 67% | % inhibition of TSH stimulation; TSH (2), run at the end of assay; Experiment 1 [5]: 12% | % inhibition of TSH stimulation; TSH (2), run at the end of assay; Experiment 2 [5]: 13% | Mutated/Wild type (%) of cyclic AMP produced, TSH 0.01 ng/mL [5]: 358% | Mutated/Wild type (%) of cyclic AMP produced, TSH 0.03 ng/mL [5]: 178% | Mutated/Wild type (%) of cyclic AMP produced, TSH 0.1 ng/mL [5]: 201% | Mutated/Wild type (%) of cyclic AMP produced, TSH 0.3 ng/mL [5]: 96% | Mutated/Wild type (%) of cyclic AMP produced, TSH 1 ng/mL [5]: 77% | Mutated/wild type (%) of cyclic AMP produced; TSH 3 ng/mL [5]: 83% | Mutated/wild type (%) of cyclic AMP produced; TSH 3 ng/mL; Experiment 1 [5]: 57% | Mutated/wild type (%) of cyclic AMP produced; TSH 3 ng/mL; Experiment 2 [5]: 81% | Mutated/wild type (%) of cyclic AMP produced; TSH (2) 3 ng/mL, run at the end of assay; Experiment 1 [5]: 54% | Mutated/wild type (%) of cyclic AMP produced; TSH (2) 3 ng/mL, run at the end of assay; Experiment 2 [5]: 69% | Cyclic AMP produced, mutated TSHR, TSH 0.01 ng/mL (Experiment 1) [6]: 1.4 pmol/mL | Cyclic AMP produced, mutated TSHR, TSH 0.01 ng/mL (Experiment 2) [6]: 2.58 pmol/mL | Cyclic AMP produced, mutated TSHR, TSH 0.03 ng/mL (Experiment 1) [6]: 2.16 pmol/mL | Cyclic AMP produced, mutated TSHR, TSH 0.03 ng/mL (Experiment 2) [6]: 4.1 pmol/mL | Cyclic AMP produced, mutated TSHR, TSH 0.1 ng/mL (Experiment 1) [6]: 5.39 pmol/mL | Cyclic AMP produced, mutated TSHR, TSH 0.1 ng/mL (Experiment 2) [6]: 9.44 pmol/mL | Cyclic AMP produced, mutated TSHR, TSH 0.3 ng/mL (Experiment 1) [6]: 15.1 pmol/mL | Cyclic AMP produced, mutated TSHR, TSH 0.3 ng/mL (Experiment 2) [6]: 23.5 pmol/mL
